Results on eleven proteins are retold here after paper doi:10.1101/2020.10.11.334888 (bioRxiv, 2020).

Substitutions are numbered along the chain they refer to. Names may count otherwise. Like-named read-outs stand apart in the source and are kept apart here.

What is called stoichiometry N is a count of units in the complex or per binding partner.

Data set [1] deals with the molecule itself. Put plainly: cryo-EM structure.
The data set “negative-stain EM” concerns the molecule itself. Put plainly: negative-stain EM.
Data set [2] deals with the molecule itself. Briefly: cryo-EM structure. This is another data set of the same source.
Data set [3] deals with the molecule itself. Put plainly: electron microscopy of purified hook-basal bodies.

B1: FliF in the native flagellar basal body (native MS ring) (natural protein)
chain: MSATASTATQPKPLEWLNRLRANPRIPLIVAGSAAVAIVVAMVLWAKTPDYRTLFSNLSDQDGGAIVAQLTQMNIPYRFANGSGAIEVPADKVHELRLRLAQQGLPKGGAVGFELLDQEKFGISQFSEQVNYQRALEGELARTIETLGPVKSARVHLAMPKPSLFVREQKSPSASVTVTLEPGRALDEGQISAVVHLVSSAVAGLPPGNVTLVDQSGHLLTQSNTSGRDLNDAQLKFANDVESRIQRRIEAILSPIVGNGNVHAQVTAQLDFANKEQTEEHYSPNGDASKATLRSRQLNISEQVGAGYPGGVPGALSNQPAPPNEAPIATPPTNQQNAQNTPQTSTSTNSNSAGPRSTQRNETSNYEVDRTIRHTKMNVGDIERLSVAVVVNYKTLADGKPLPLTADQMKQIEDLTREAMGFSDKRGDTLNVVNSPFSAVDNTGGELPFWQQQSFIDQLLAAGRWLLVLVVAWILWRKAVRPQLTRRVEEAKAAQEQAQVRQETEEAVEVRLSKDEQLQQRRANQRLGAEVMSQRIREMSDNDPRVVALVIRQWMSNDHE
Turning to B1, the “stoichiometry N” value in “cryo-EM structure [1]” stood at 34.

B2: FliF(I252R), overexpressed in E. coli (natural protein)
chain: B1 chain with I252R
For B2, in the data set “negative-stain EM”, the binding result is recorded as “binds”.

B3: FliF(V266R), overexpressed in E. coli (natural protein)
chain: B1 chain with V266R
Take B3: in “negative-stain EM”, the binding result was “binds”.

B4: FliF(I252A), overexpressed in E. coli (natural protein)
chain: B1 chain with I252A
Turning to B4, in “negative-stain EM”, the binding result was “binds”.

B5: full-length Salmonella FliF (MS ring), overexpressed from pKOT105 (data set 2) (natural protein)
chain: B1 chain
Take B5: the “stoichiometry N” value in the data set “cryo-EM structure [2]” was 34.

B6: FliF(V266A), overexpressed in E. coli (natural protein)
chain: B1 chain with V266A
B6: in the data set “negative-stain EM”, the binding result is recorded as “binds”.

B7: FliF(I252A) expressed from pMMiF002 in Salmonella TH12415 (ΔfliF) (natural protein)
chain: B1 chain with I252A
Consider B7, for which the binding result in data set [3] was “binds”.

B8: FliF(L253A), overexpressed in E. coli (natural protein)
chain: B1 chain with L253A
Regarding B8, the binding result in the data set “negative-stain EM” is listed as “binds”.

B9: full-length Salmonella FliF (MS ring), overexpressed from pKOT112 (data set 1) (natural protein)
chain: B1 chain
For the protein B9, the “stoichiometry N” value in the data set “cryo-EM structure [2]” was 34.

B10: FliF(L253A) expressed from pMMiF004 in Salmonella TH12415 (ΔfliF) (natural protein)
chain: B1 chain with L253A
As for B10, the binding result in data set [3] is given as “binds”.

B11: FliF(L253R), overexpressed in E. coli (natural protein)
chain: B1 chain with L253R
For the protein B11, the binding result in “negative-stain EM” is “binds”.
